Square brackets hold non-standard residues; d marks the D form. Ends that are not written are not given here. NMePhe(3-Cl) = CN[C@@H](Cc1cccc(Cl)c1)C(=O)O; NMePhe(4-Cl) = CN[C@@H](Cc1ccc(Cl)cc1)C(=O)O; NMePhe(3-Me) = CN[C@@H](Cc1cccc(C)c1)C(=O)O; NMePhe(4-Me) = CN[C@@H](Cc1ccc(C)cc1)C(=O)O; Bip = N[C@@H](Cc1ccc(-c2ccccc2)cc1)C(=O)O; Phe(3-Cl) = N[C@@H](Cc1cccc(Cl)c1)C(=O)O; Phe(4-Cl) = N[C@@H](Cc1ccc(Cl)cc1)C(=O)O; Phe(3-Me) = Cc1cccc(C[C@H](N)C(=O)O)c1; Phe(4-F) = N[C@@H](Cc1ccc(F)cc1)C(=O)O; Phe(4-Me) = Cc1ccc(C[C@H](N)C(=O)O)cc1; NMeF = CN[C@@H](Cc1ccccc1)C(=O)O; 3Pal = N[C@@H](Cc1cccnc1)C(=O)O; 4Pal = N[C@@H](Cc1ccncc1)C(=O)O; Cha = N[C@@H](CC1CCCCC1)C(=O)O; MeY = Methyl-L-tyrosine
Columns and labels:
[1] = molecular target: T1, BMP4 (Homo sapiens, UniProt P12644); experiment: BMP4 signal transduction inhibitory activity: SMAD1 phosphorylation by BMP4 stimulus, AlphaLISA SureFire, A549 cells; assay type: cell-based; details: BMP4 0.2 nM stimulus
T1 sequence (P12644 293-408): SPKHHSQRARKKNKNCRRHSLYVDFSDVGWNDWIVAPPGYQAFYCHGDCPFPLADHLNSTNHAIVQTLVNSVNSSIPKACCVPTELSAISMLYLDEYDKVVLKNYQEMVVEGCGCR

[2] = molecular target: T2, BMP7 (Homo sapiens, UniProt P18075); experiment: BMP7 signal transduction inhibitory activity: SMAD1 phosphorylation by BMP7 stimulus, A549 cells; assay type: cell-based; details: BMP7 10 nM stimulus
T2 sequence (P18075 293-431): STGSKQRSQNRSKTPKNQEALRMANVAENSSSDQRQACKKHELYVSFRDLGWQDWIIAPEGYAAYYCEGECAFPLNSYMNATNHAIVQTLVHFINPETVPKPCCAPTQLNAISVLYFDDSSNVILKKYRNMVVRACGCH
Summary of the method: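 SMAD1 phosphorylation readout in A549 cells stimulated with BMP7 (10 nM). Peptides were tested at three levels (e.g. 1/10/100, 10/100/1,000, 100/300/1,000, 10/30/90 nM) or at eight points, 1/3 steps, from 100 or 1,000 nM. Recombinant Noggin served as positive control at matching concentrations.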

[3] = peptide conc. in assay 2, 20, 200 nM
[4] = peptide conc. in assay 10, 30, 90 nM
[5] = peptide conc. in assay 0.2, 2, 20 nM
[6] = peptide conc. in assay 1, 10, 100 nM

| Substance | aLISA BMP4 (0.2 nM) % inh [1, 3] | aLISA BMP7 (10 nM) % inh [2, 4] | aLISA BMP4 (0.2 nM) % inh [1, 5] | aLISA BMP7 (10 nM) % inh [2, 6] |
| --- | --- | --- | --- | --- |
| 372 ([Phe(3-Cl)]G[NMeF]G[Bip]GDD[Cha]A[NMeF]LHCG-NH2; not fully specified (N-terminus, bridges); also: cyclic peptide, linkage not given here) [compound 372] | ND (the inhibitory activity was less than 30% at the maximum concentration evaluated) | G (showed less than 30% of inhibitory activity in 30 nM-addition zone and showed 30% or more of inhibitory activity in 90 nM-addition zone) |  |  |
| 373 ([Phe(4-Cl)]G[NMeF]G[Bip]GDD[Cha]A[NMeF]LHCG-NH2; not fully specified) [compound 373] | A (showed less than 30% of inhibitory activity in 2 nM-peptide-addition zone and showed 30% or more of inhibitory activity in 20 nM-addition zone) | F (showed less than 30% of inhibitory activity in 10 nM-addition zone and showed 30% or more of inhibitory activity in 30 nM-addition zone) |  |  |
| 374 ([Phe(3-Me)]G[NMeF]G[Bip]GDD[Cha]A[NMeF]LHCG-NH2; not fully specified) [compound 374] | ND (the inhibitory activity was less than 30% at the maximum concentration evaluated) | G (showed less than 30% of inhibitory activity in 30 nM-addition zone and showed 30% or more of inhibitory activity in 90 nM-addition zone) |  |  |
| 375 ([Phe(4-Me)]G[NMeF]G[Bip]GDD[Cha]A[NMeF]LHCG-NH2; not fully specified) [compound 375] | B (showed less than 30% of inhibitory activity in 20 nM-addition zone and showed 30% or more of inhibitory activity in 200 nM-addition zone) | F (showed less than 30% of inhibitory activity in 10 nM-addition zone and showed 30% or more of inhibitory activity in 30 nM-addition zone) |  |  |
| 376 (FG[NMeF]G[3Pal]GDD[Cha]A[NMeF]LHCG-NH2; not fully specified) [compound 376] | ND (the inhibitory activity was less than 30% at the maximum concentration evaluated) | G (showed less than 30% of inhibitory activity in 30 nM-addition zone and showed 30% or more of inhibitory activity in 90 nM-addition zone) |  |  |
| 377 (FG[NMeF]G[4Pal]GDD[Cha]A[NMeF]LHCG-NH2; not fully specified) [compound 377] | ND (the inhibitory activity was less than 30% at the maximum concentration evaluated) | F (showed less than 30% of inhibitory activity in 10 nM-addition zone and showed 30% or more of inhibitory activity in 30 nM-addition zone) |  |  |
| 378 (FG[NMeF]G[Phe(4-F)]GDD[Cha]A[NMeF]LHCG-NH2; not fully specified) [compound 378] | ND (the inhibitory activity was less than 30% at the maximum concentration evaluated) | F (showed less than 30% of inhibitory activity in 10 nM-addition zone and showed 30% or more of inhibitory activity in 30 nM-addition zone) |  |  |
| 379 (FG[NMeF]G[Phe(3-Cl)]GDD[Cha]A[NMeF]LHCG-NH2; not fully specified) [compound 379] | ND (the inhibitory activity was less than 30% at the maximum concentration evaluated) | G (showed less than 30% of inhibitory activity in 30 nM-addition zone and showed 30% or more of inhibitory activity in 90 nM-addition zone) |  |  |
| 380 (FG[NMeF]G[Phe(4-Cl)]GDD[Cha]A[NMeF]LHCG-NH2; not fully specified) [compound 380] | B (showed less than 30% of inhibitory activity in 20 nM-addition zone and showed 30% or more of inhibitory activity in 200 nM-addition zone) | F (showed less than 30% of inhibitory activity in 10 nM-addition zone and showed 30% or more of inhibitory activity in 30 nM-addition zone) |  |  |
| 381 (FG[NMeF]G[Phe(3-Me)]GDD[Cha]A[NMeF]LHCG-NH2; not fully specified) [compound 381] | ND (the inhibitory activity was less than 30% at the maximum concentration evaluated) | G (showed less than 30% of inhibitory activity in 30 nM-addition zone and showed 30% or more of inhibitory activity in 90 nM-addition zone) |  |  |
| 382 (FG[NMeF]G[Phe(4-Me)]GDD[Cha]A[NMeF]LHCG-NH2; not fully specified) [compound 382] | ND (the inhibitory activity was less than 30% at the maximum concentration evaluated) | G (showed less than 30% of inhibitory activity in 30 nM-addition zone and showed 30% or more of inhibitory activity in 90 nM-addition zone) |  |  |
| 383 (FG[NMeF]GYGDD[Cha]A[NMeF]LHCG-NH2; not fully specified) [compound 383] | ND (the inhibitory activity was less than 30% at the maximum concentration evaluated) | F (showed less than 30% of inhibitory activity in 10 nM-addition zone and showed 30% or more of inhibitory activity in 30 nM-addition zone) |  |  |
| 384 (FG[NMePhe(3-Cl)]G[Bip]GDD[Cha]A[NMeF]LHCG-NH2; not fully specified) [compound 384] | B (showed less than 30% of inhibitory activity in 20 nM-addition zone and showed 30% or more of inhibitory activity in 200 nM-addition zone) | E (showed 30% or more of inhibitory activity in 10 nM-addition zone) |  |  |
| 385 (FG[NMePhe(4-Cl)]G[Bip]GDD[Cha]A[NMeF]LHCG-NH2; not fully specified) [compound 385] | B (showed less than 30% of inhibitory activity in 20 nM-addition zone and showed 30% or more of inhibitory activity in 200 nM-addition zone) | F (showed less than 30% of inhibitory activity in 10 nM-addition zone and showed 30% or more of inhibitory activity in 30 nM-addition zone) |  |  |
| 386 (FG[NMePhe(3-Me)]G[Bip]GDD[Cha]A[NMeF]LHCG-NH2; not fully specified) [compound 386] | B (showed less than 30% of inhibitory activity in 20 nM-addition zone and showed 30% or more of inhibitory activity in 200 nM-addition zone) | F (showed less than 30% of inhibitory activity in 10 nM-addition zone and showed 30% or more of inhibitory activity in 30 nM-addition zone) |  |  |
| 387 (FG[MeY]G[Bip]GDD[Cha]A[NMeF]LHCG-NH2; not fully specified) [compound 387] | A (showed less than 30% of inhibitory activity in 2 nM-peptide-addition zone and showed 30% or more of inhibitory activity in 20 nM-addition zone) | F (showed less than 30% of inhibitory activity in 10 nM-addition zone and showed 30% or more of inhibitory activity in 30 nM-addition zone) |  |  |
| 388 (FG[NMeF]G[Bip]GDD[Cha]A[NMePhe(3-Cl)]LHCG-NH2; not fully specified) [compound 388] | B (showed less than 30% of inhibitory activity in 20 nM-addition zone and showed 30% or more of inhibitory activity in 200 nM-addition zone) | E (showed 30% or more of inhibitory activity in 10 nM-addition zone) |  |  |
| 389 (FG[NMeF]G[Bip]GDD[Cha]A[NMePhe(4-Cl)]LHCG-NH2; not fully specified) [compound 389] | B (showed less than 30% of inhibitory activity in 20 nM-addition zone and showed 30% or more of inhibitory activity in 200 nM-addition zone) | E (showed 30% or more of inhibitory activity in 10 nM-addition zone) |  |  |
| 390 (FG[NMeF]G[Bip]GDD[Cha]A[NMePhe(3-Me)]LHCG-NH2) [compound 390] | B (showed less than 30% of inhibitory activity in 20 nM-addition zone and showed 30% or more of inhibitory activity in 200 nM-addition zone) | E (showed 30% or more of inhibitory activity in 10 nM-addition zone) |  |  |
| 391 (FG[NMeF]G[Bip]GDD[Cha]AYLHCG-NH2; not fully specified (residue 11)) [compound 391] | A (showed less than 30% of inhibitory activity in 2 nM-peptide-addition zone and showed 30% or more of inhibitory activity in 20 nM-addition zone) | F (showed less than 30% of inhibitory activity in 10 nM-addition zone and showed 30% or more of inhibitory activity in 30 nM-addition zone) |  |  |
| 392 ([Phe(4-F)]G[NMeF]G[Bip]GDD[Cha]A[NMeF]LHCG-NH2; not fully specified) [compound 392] |  |  | A (showed less than 30% of inhibitory activity in 2 nM-peptide-addition zone and showed 30% or more of inhibitory activity in 20 nM-addition zone) | D (showed less than 30% of inhibitory activity in 10 nM-addition zone and showed 30% or more of inhibitory activity in 100 nM-addition zone) |
| 393 (FG[NMePhe(4-Me)]G[Bip]GDD[Cha]A[NMeF]LHCG-NH2; not fully specified) [compound 393] |  |  | A (showed less than 30% of inhibitory activity in 2 nM-peptide-addition zone and showed 30% or more of inhibitory activity in 20 nM-addition zone) | D (showed less than 30% of inhibitory activity in 10 nM-addition zone and showed 30% or more of inhibitory activity in 100 nM-addition zone) |
| 394 (FG[NMeF]G[Bip]GDD[Cha]A[NMePhe(4-Me)]LHCG-NH2; not fully specified) [compound 394] |  |  | ND (the inhibitory activity was less than 30% at the maximum concentration evaluated) | D (showed less than 30% of inhibitory activity in 10 nM-addition zone and showed 30% or more of inhibitory activity in 100 nM-addition zone) |

Source: patent publication US20250361274A1, “PEPTIDE AND PEPTIDE-CONTAINING AGENT” (PEPTIDREAM INC., priority 2022, published 2025)
